Patent publication EP1486509A2, “Radiolabeled annexin-galactose cluster conjugates” (NEORX CORPORATION, priority 1994, dated 1996)

Assays:
[1] = Blood clearance in the swine model; conditions: in vivo
Text: An animal model, as previously described in Example III, was employed to evaluate blood clearance of the molecules.

[2] = system: atrial thrombi and injured left atrium; design: species or system Yorkshire swine; conditions: in vivo
Method: Image acquisition was performed as described below. […] A final blood sample was taken for well counting.
D. Sample Collection. […] Each vial was counted for 1 minute.
Well counting ratios were obtained for a variety of tissue samples. For the injured tissues and thrombi, multiple specimens were usually taken from the same animal. In those cases, the maximum ratio for any one specimen is reported, as well as the average of all specimens taken. The maximum for each animal was averaged across all animals and is reported as the Maximum Anx-V Ratio.

## Tc-99m-annexin V: Annexin V radiolabeled with Tc-99m by a diamide dimercaptide N2S2 chelate (Example I)
[1]
  %ID/g a: %ID/g a = 0.0389
  %ID/g b: %ID/g b = 0.0300
[2]
  highest non-target localization: kidney
